The series is described as follows: yeast display, Sf9 membrane polyspecificity reagent, FACS + sequencing; frameworks hold sequencing errors. The procedure, abridged:
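Nanobodies came from a synthetic yeast display library in Saccharomyces cerevisiae BJ5465, induced with galactose for 36–48 hours and stained for 1 hour at 4 °C with 10% biotinylated, detergent-solubilized Sf9 membrane reagent. Cells were enriched on streptavidin microbeads and then FACS-sorted, with low and high (top ~1%) gates set on anti-HA fluorescence for expression and streptavidin fluorescence for reagent binding. Each polyreactivity label reflects the gate a clone came from. Genes were amplified by colony PCR, sequenced by MiSeq 2 × 250 and filtered by CDR length.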
As to “QVQLVESGGGLVQAGGSLRLSCAASGLIFYYYSMGWYRQAPGKERELVAAISGGGSTYYADSVKGRFTISRDNAKNTVYLQMNSLKPEDTAVYYCAADTRTSYYKDDYDYWGQGTQVTVSS”, the “polyreactivity (PSR sort gate)” value is “low polyreactivity”.

With “QVQLVESGGGLVQAGGSLRLSCAASGISFSYYAMGLCRQAPGKERELVAAISISGGRTYYADSVKGRFTISRDNAKNTVYLQMNSLKPEDTAVYYCASCVGSRIKQVGNDYWGQVTQVTVSS”, the “polyreactivity (PSR sort gate)” value was “high polyreactivity”.

Regarding “QVQLVDSGGGLVQAGGSLRLSCAASGRISSQYAMGWYRQAPGKERELVAAISTSGDRTYYADSVKGRFTISRDNAKNTVYLQMNSLKPEDTAVYYCAKDGPYTYGRDISEYWGQGTQVTVSS”, the “polyreactivity (PSR sort gate)” value is given as “low polyreactivity”.

Turning to “QVQLVESGGGLVQAGGSLRLSCAASGSIFYIYAMGWYRKAPGKERELVASIDSGDSTNYADSVKGRFTISRDNAKNTVYLQMNSLKPEDTAVYYCNADTYSEITYYLYIGMDYWGQGTQVTVSS”, the “polyreactivity (PSR sort gate)” value was “low polyreactivity”.

Turning to “QVQLVESGGGLVQAGGSLRLTCAASASTFKPYAMGWDRQAPGKERELVAAINGSGGDTYYADSVKGRFTISRDNAKTTVYLQMNSLKPEDTAVYYCAAQWGYYNYWYGYWGQGSQVTVSS”, the “polyreactivity (PSR sort gate)” value is “low polyreactivity”.

As to “QVQLVESGGGLVQAGGSLRLSCAASGRISGVNAMGWYRQAPGKERELVATISGSGGRTYYADSVKGRFTISRDNAKNTVYLQMNSLKPEDTAVYYCAAGPPRADYDYWGQGTQVTVSS”, the “polyreactivity (PSR sort gate)” value is reported as “low polyreactivity”.

On to “QVQLVESVGCLVQAGGSLRLSCAASGFNFGYNAMGWYRQAPGKERELVAAITWIGGTTYYADSVKGRFTISRYNAKYTVYLQMNILKPEDTAVDYCNALRRGVRDPYGYWGLGTQVTVSS”, for which the “polyreactivity (PSR sort gate)” value is “high polyreactivity”.

For “PVQLVESGGGLVQAGGSLRLSCAASGRTFGLNGKGWYRQSPGKEREFVATITGSGTSTYYADSVKGRFTISRDNAKNTVYLQMNSLKPEDSAVYFCAALSGLWGYHYYHEYYYWGQGTQVTVSS”, the “polyreactivity (PSR sort gate)” value is on record as “low polyreactivity”.

With “QVQLVESGGGLVQAGGSLRLSCAASGSTIRGYAMGWYRQVTGKEREMGADISWSGTSTKYADSVKGRFTISRDNAKNTVYLQMNSLKPEDTAVYYCAKRYVRFPWRMDYWGQGTQVTVSS”, the “polyreactivity (PSR sort gate)” value is listed as “high polyreactivity”.

As to “QVHLQESGGGLVKAGGSLRLSCAASGNISNHNDMGWYRQAPGKEREFVAGITAGGITNYADSVKGRFTISRDNAKNTVYLQMNSLKPEDTAVYYCAASPDYAKSYGYWGQGTQATVSS”, the “polyreactivity (PSR sort gate)” value is listed as “low polyreactivity”.

In the case of “QVQLVESGGGLVQAGGSLRLSCAASGSNFSRYAMGWYRQAPGKERDLVAAITSTGDSTSYADSVKGRFTISRDNAKNTVYVQMNSLKPEDTAVYYCAIVYVYRYVIPYDYWGQGTQVTVSS”, the “polyreactivity (PSR sort gate)” value is reported as “low polyreactivity”.

As for “QVQLQESGGGLVQAGGSLRQSYAASGYIFPSLAMGWYRQAPGKEREFVAAIGRGSTNNYADSVKGRFTISRDNAKNTAYQQMNSLKPEDTAVYYCAADASPLTRNLYWGQGTQVTVSS”, the “polyreactivity (PSR sort gate)” value is “low polyreactivity”.

Regarding “QVQLVESGGGLVQAGGSLRLSCDASGSIFATYAMGWYRQAPGKERELVAAIRRSTGTTYYADSVKGRFTISRDNAKNTVYLQMNSLKPEDTAVYYCAALFRPRVHRYDYWGQGTLVTVSS”, the “polyreactivity (PSR sort gate)” value is “low polyreactivity”.

With “QVQLQESGGGQVQAGGSLRLSSAASGYIFAYNYMGWYRKAPGKERELVAAIVHGSTTNYADSVKGRFTISRDNAKNTVYLHMNNLKPEDTAVYYCAVDAERYYLHSYWGQGTQVTVSS”, the “polyreactivity (PSR sort gate)” value was “high polyreactivity”.

Take “QVQLVESGGGLVQAGGSLRLSCAASGSTFSANTMGWYRQAPGKQREFVAAISSSGVGTRYADSVKGRFTISRDYAKNTVYLQMNSLKPEDTAVYYCAADYRPTVITRNDYWGQGTQVTVSS”: the “polyreactivity (PSR sort gate)” value was “low polyreactivity”.

Consider “QVQLEESGGGLVQAGGSLRLSCAASGFIFYRYAMGWYRQAPGKERELVAALTTGGDRTYYADSVKGRFTISRDNAKNTVYLQMNSLKPEDPAVYYCATLWSYYYATIYLDGYDYWGQGTQVTVSS”, for which the “polyreactivity (PSR sort gate)” value is on record as “high polyreactivity”.

For “QVQLVESGGGLVQAGGSLRLSCAASGSTFDPNAMGWYRQAPGKERELVAAITGRGGSTYYADSVKGRFTISRDTAKNTVYLQMNSLKPEDTAVYYCAAEYLGSIDTSYNYWGQGTQVTVSS”, the “polyreactivity (PSR sort gate)” value is “low polyreactivity”.

Turning to “QVQLVESGGGLVQAGGSLRLSCAASGLSFLYAMGWYRHAPGKERELVAAISNGGSTYYADSVKGRFTISRDNAKNTDYLQMNSLKPEDTAVYYCAAAVTGSYASDYWGQGTQVTVSS”, the “polyreactivity (PSR sort gate)” value is “high polyreactivity”.

Regarding “QVQLVESGGGLVQAGGSLRLSCAASGFTFNRYAMGWYRQAPGQERELVAAISRSGGSTSYADSVKGRFTISRDNAKKTVYLPMHSLKPEDTAVYYCAADRVWYLYYDYNYWGQGTQVTVSS”, the “polyreactivity (PSR sort gate)” value was “high polyreactivity”.

For the sequence “QVQLVESGGGLVQAGGSLRLSCAASGSTFTRNAKGWYRQAPGKERELVAAITSSGSRTYYADSVKGRFTISRDNAKNTVYLQMNRLKPEDTAVYYCAGLGDTRYVAMDHWGQGTQVTVSS”, the “polyreactivity (PSR sort gate)” value is “high polyreactivity”.

In the case of “QVQLVESGGGLVQAGGSLRLSCAASGSIFWWNAMGWYRQAPGKERELVAAISYSGGSTYYADSVKGRFTISRDNAKKTVYLQRNSLKPEDTAVYYCAATKFRYYGYDYWGQGTQVTVSS”, the “polyreactivity (PSR sort gate)” value is given as “low polyreactivity”.

Turning to “QVQLEESGGGLVQAGGSLRLSCAASGSIFTANAMGWYRQAHGKERELVAAINRSGGRTYADSVKGRFTISRDNAKNTVYLQMNSLKPEDTAVYYCAAVGHVYKGHDFGYWGQGTQVTVSS”, the “polyreactivity (PSR sort gate)” value was “low polyreactivity”.

Consider “QVQLVESGGGLVQAGGSLRLSCAASGSIFGPYVMGWYRQAPGKERELVAAISKSGGSTYYADSVKGRFTISRDNAKNTVYLQMNSLKPEDTAVYYCATDYLGGGKRYYYWGQGTQVTVSS”, for which the “polyreactivity (PSR sort gate)” value was “high polyreactivity”.

As for “QVQLVESGGGLVQAGGSLRLSCAASGSTSWSYAMGWYRQAPGKERELVAAITRTGSTNYADSVKGRFTISRDNAKNTVYLQMNSLKPEDTAVYYCVYATLRYDYWGQGTQVTVSS”, the “polyreactivity (PSR sort gate)” value is listed as “low polyreactivity”.

Consider “QVQLVESGGGLVQAGGSLRLSCAASGSTLGSYAMGWYRQAPGKERELVAAINTSGGNTYYADSVKGRFTISRDNAKNTVYLQMNSLKPEDTAVYYCNARYYGGGATFGYWGQGTQVTVSS”, for which the “polyreactivity (PSR sort gate)” value is given as “low polyreactivity”.

As to “QVQLVESGGGLVQAGGSLRLSCAASGFTFGRYAMGWYRQAPGKERELVASITSGGSTYYADSVKGRFTISRDNAKNTVYLQMNSLKPEDTAVYYCAAEWRWWGGYYYWGQGTQVTVSS”, the “polyreactivity (PSR sort gate)” value is recorded as “high polyreactivity”.

For the sequence “QVQLVESGGGLVQAGGSLRLSCAASGSTFWEYAMGWYRQGPGTERELVAAISSSGGSTYYADSVKGRFTISRDNAKNTVYLQMNSLKPEDTAVYYCAARYSWRRAGYYYWGQGTQVTVSS”, the “polyreactivity (PSR sort gate)” value is on record as “high polyreactivity”.

As for “QVQLVESGGGLVQAGGSLRLSCAASGSIFSPYAMGWYRQAPGKERELVAAITDSGGSTYYADSVKGRFTISRDNAKYTVYLQMNSLKPEDTAVYYCAADLRYWSWAFDYWGQGTQVTVSS”, the “polyreactivity (PSR sort gate)” value is “low polyreactivity”.

On to “QVQLVESGVGLVQAGGSLRLSCAASGSTFYPNAMGWYRQAPRKERELVAAISRGTRTKYADSVKGRFTISRDNAKNTVYLQMNSLKPEDTAVYYCAADTGTGLDWGQGTQVTVSS”, for which the “polyreactivity (PSR sort gate)” value is on record as “high polyreactivity”.

On to “QVQLVESGGGLVQAGGSLRLSCAASGITFNPNAMGWYRQAPGKERELVAVITYRGGSTYYADSVMGRFTISRDNAKNTVYLQMNSLKPADTAVYYCAAQYIGWHLYWYDYWGQGTQVTVSS”, for which the “polyreactivity (PSR sort gate)” value is “low polyreactivity”.

Take “QVQLVESGGGLVQAGGSLRLTCAASGRIFAYYAMGWSRQAPGKERELVAAISSGGTTNYADSVKGRFTISRDNAKNTVYLQLTSLKPEDTAVYYCNADGWRRSRQYYYWGQGTQVTVSS”: the “polyreactivity (PSR sort gate)” value is on record as “low polyreactivity”.

On to “QVQLVESGGGLVQAGGSLRLSCAASGRTFRSNAMGWYRQAPGKERELVAAISKGGDRTYYADSVKGRFTISRDNAKNNVYLHMNSLKPEDTAVYYCAARYTPSRYYYWGQGTQVTVSS”, for which the “polyreactivity (PSR sort gate)” value was “high polyreactivity”.

With “QVQLVESGGGLVQAGGSLRLSCAASGFTFSHYAMGWYRQAPGKERELVAAISRRGSSTYYADSVKGRFTISRDNAKNTVYLQMNSLKPEDTAVYYCNVERLTGVWYYQRPSQDGYWGQGTQVTVSS”, the “polyreactivity (PSR sort gate)” value was “high polyreactivity”.

Consider “QIQLVESGGGLVQAGGILRISCAASGRTFGSNTMGWSRQAPGKERELVAAISGTGTSTYYADSVKGRFTISRDNAKNTVYLQMNILKPEDTAVFYCAAGWYKYLFQPHDYWGQGTQVTVSS”, for which the “polyreactivity (PSR sort gate)” value was “low polyreactivity”.

Consider “QVQLVESGGGLVQAGGSLRLSCAASGLIFIAYAMGWYRQAPGKEREFVAAITWNGVSTYYADSVKGRFTISRDNAKNTVYLQMNSLKPEDTAVYYCNADYVFSPWAYEYWGQGTQVTVSS”, for which the “polyreactivity (PSR sort gate)” value was “high polyreactivity”.

As to “QVQLVESGGGLVQAGGSLRLSCAASGRTFRYYAMGWYRPAPGKERELVAAITSGGSTYYADSVKGRFTISRDNAKNTVYLQMNSLKPEDTAVYYCNKDFTRTWTRHGDDYWGQGTQVTVSS”, the “polyreactivity (PSR sort gate)” value is “high polyreactivity”.

On to “QVQLVESGGGLVQAGGSLRLSCAASGRTLNYYAMVCYRQAPGKERELVASIDWDTGITDYADSVKGRFTISRDNAKNTVYLQMNSLKPEDSAVYYCAAVRVTKKYSYAYWGQGTQVTVSS”, for which the “polyreactivity (PSR sort gate)” value is “low polyreactivity”.

Consider “QVQLVESGGGLVQAGGSLRLSCAASGRIFYSNAMGWYRQAPGKERELVATISRGGSTYADSVKGRFTISRDNAKNTVYLQMNSLKPEDTAVYYCAAGLQGYPRKFNYWGQGTQVTVSS”, for which the “polyreactivity (PSR sort gate)” value was “low polyreactivity”.

As for “QVHLVESGGGLVQAGGSLRLSCAASGSIFYRNAMGWYRPAPGKERELVAAISSDGSTNYADSVKGRFTISRDNEKNTVYLQMNSLKPEDTAVYYCAAPWTQILDYWGQGNQVTVSS”, the “polyreactivity (PSR sort gate)” value is “low polyreactivity”.

Turning to “QVQLVESGGGLVQAGGSLRLSCAASGSIFGKNAMGWYRPAPGKERELVAAITRRGGSTYYADSVKGRFTISRDNAKNTVYLQMISLKPEDTAVYYCNALLTGGYQDSYPDDYWGQGTQVTVSS”, the “polyreactivity (PSR sort gate)” value is given as “high polyreactivity”.

As to “QVQLVESGGGLVQAGGSLPLSCAASGSISGLNARGWSRQAPGTEREMVAAISRSGTRRYYADSVKGRFTISRDNEKNTVYLQMNSLKPEDSAVYYCAVQYAVAVGRYNYWGQGTQVTVSS”, the “polyreactivity (PSR sort gate)” value is “high polyreactivity”.

Values taken from the nanobody polyreactivity screen of Harvey et al. (2022).
